B1: conjugate with the mIgG2a Fc: anti-SIRP-α antibody, heavy chain SEQ ID NO:90 and light chain SEQ ID NO:111, conjugated to mouse CpG oligo 4523 (SEQ ID NO:121) (conjugate)
heavy: DVQLVESGGGVVRPGESLRLSCAASGFTFSSNAMSWVRQAPGKGLEWLAGISAGGSDTYYPASVKGRFTISRDNSKNTLYLQMNTLTAEDTAVYYCARETWNHLFDYWGLGTLVTVSSAKTTAPSVYPLAPVCGDTTGSSVTLGCLVKGYFPEPVTLTWNSGSLSSGVHTFPAVLQSDLYTLSSSVTVTSSTWPSQSITCNVAHPASSTKVDKKIEPRGPTIKPCPPCKCPAPNLLGGPSVFIFPPKIKDVLMISLSPIVTCVVVDVSEDDPDVQISWFVNNVEVHTAQTQTHREDYNSTLRVVSALPIQHQDWMSGKEFKCKVNNKDLPAPIERTISKPKGSVRAPQVYVLPPPEEEMTKKQVTLTCMVTDFMPEDIYVEWTNNGKTELNYKNTEPVLDSDGSYFMYSKLRVEKKNWVERNSYSCSVVHEGLHNHHTTKSFSRTPGRPQGFGPP
light: ALTQPASVSANPGETVKIACSGGDYYSYYYGWYQQKAPGSALVTVIYSDDKRPSDIPSRFSGSASGSTATLTITGVRAEDEAVYYCGGYDYSTYANAFGAGTTLTVLGQPKSSPSVTLFPPSSEELETNKATLVCTITDFYPGVVTVDWKVDGTPVTQGMETTQPSKQSNNKYMASSYLTLTARAWERHSSYSCQVTHEGHTVEKSLSRADCS
DNA: ttcgtcgtgacgtt
modifications: antibody conjugated to CpG oligonucleotide; modified_base 2 OTHER; iodo-uridine; modified_base 1..5 OTHER; phosphorothioate linkages; misc_feature 5^6 phosphotriester linker; modified_base 6..14 OTHER; misc_feature 14 3' spacer C3
B2: anti-mSIRP-α antibody conjugated with murine reactive mT-CpG: anti-SIRP-α mIgG1, heavy chain SEQ ID NO:91 and light chain SEQ ID NO:111, conjugated to mouse CpG oligo 4523 (SEQ ID NO:121) (conjugate)
heavy: DVQLVESGGGVVRPGESLRLSCAASGFTFSSNAMSWVRQAPGKGLEWLAGISAGGSDTYYPASVKGRFTISRDNSKNTLYLQMNTLTAEDTAVYYCARETWNHLFDYWGLGTLVTVSSAKTTPPSVYPLAPGSAAQTNSMVTLGCLVKGYFPEPVTVTWNSGSLSSGVHTFPAVLQSDLYTLSSSVTVPSSTWPSETVTCNVAHPASSTKVDKKIVPRDCGCKPCICTVPEVSSVFIFPPKPKDVLTITLTPKVTCVVVDISKDDPEVQFSWFVDDVEVHTAQTQPREEQFNSTFRSVSELPIMHQDWLNGKEFKCRVNSAAFPAPIEKTISKTKGRPKAPQVYTIPPPKEQMAKDKVSLTCMITDFFPEDITVEWQWNGQPAENYKNTQPIMDTDGSYFIYSKLNVQKSNWEAGNTFTCSVLHEGLHNHHTEKSLSHSPGRPQGFGPP
light: B1 light
DNA: ttcgtcgtgacgtt
modifications: antibody conjugated to CpG oligonucleotide; modified_base 2 OTHER; iodo-uridine; modified_base 1..5 OTHER; phosphorothioate linkages; misc_feature 5^6 phosphotriester linker; modified_base 6..14 OTHER; misc_feature 14 3' spacer C3

Experiments:
[1] = test system: RENCA renal carcinoma cells; assay: RENCA syngeneic tumor model, mIgG2a versus mIgG1 Fc conjugates; assay type: in vivo, mouse; details: BALB/c mice, 10 mg/kg i.p., 3 doses every 3 days, compared to conjugate with the mIgG1 Fc domain
Text: Experiments using anti-SIRP-α antibody-CpG oligonucleotide conjugate used the mouse CpG oligo 4523 (SEQ ID NO: 121) conjugated to anti-SIRP-α antibody comprising a heavy chain comprising the sequence of […] (SEQ ID NO:90) for mIgG2a or […] (SEQ ID NO:91) for mIgG1 and a light chain comprising the sequence of […] (SEQ ID NO:111). The sequence of the 4523 murine CpG oligonucleotide is tucgtcgtgacgtt-c3, where lower case indicates phosphothioate linkages, bold indicates iodo-uridine, and underlining indicates phosphotriester linker (SEQ ID NO:121). RENCA renal carcinoma cells (ATCC) were cultured in Complete RPMI 1640 (RPMI 1640+10% FBS (Gibco)) at 37° C. and 5% CO2. Cells were detached with Trypsin 0.25% (Gibco) and washed twice with RPMI 1640 (Gibco). Cells were resuspended at 20E6/mL in RPMI 1640 and kept on ice until use. 100 uL of suspended cells were subcutaneously implanted into the right flank of 6-week-old female BALB/c mice (Charles River). Tumor size was measured and recorded twice a week with calipers starting 9 days post implantation until duration of the study, approximately 35 days later. Tumor volume was calculated using the following formula: (length×width×width)/2. Once tumors reached on average 75 mm^3, […], mice were randomized by tumor size and treatments were initiated. […]

[2] = test system: MC38 overexpressing mouse SIRPα and parental MC38 colon carcinoma cells; assay: Mouse syngeneic MC38 model with SIRP-α-positive and SIRP-α-negative tumor cells; assay type: in vivo; details: 1 mg/kg i.p. twice, three days apart; MC38 overexpressing SIRP-α compared with parental MC38
Description: Parental MC38 colon carcinoma cells (ATCC) and MC38 overexpressing mouse SIRPα were cultured in Complete Dulbecco's Modified Eagle's Medium (Gibco) (DMEM, 10% FBS, 1% Pen/Strep, 1% Glutmax, 1% sodium pyruvate) at 37° C. and 5% CO2. Cells were detached with Trypsin 0.25% (Gibco) and washed twice with DMEM. Cells were resuspended at 20E6/mL in DMEM and kept on ice until use. 100 μL of suspended cells were subcutaneously implanted into the right flank of 6-week-old female C57/BL6 mice (Charles River). Tumor size was measured and recorded twice a week with calipers starting 4 days post implantation until duration of the study, approximately 17 days later. Tumor volume was calculated using the following formula: (length×width×width)/2. Once MC38 parental and MC38 SIRP-α tumors reached on average 94 mm^3 to 88 mm^3, respectively, approximately 4 days post implantation, mice were randomized by tumor size and treatments were initiated. The anti-SIRP-α mIgG1 conjugated to mTCpG (heavy chain comprising the sequence of SEQ ID NO:91 and light chain comprising the sequence of SEQ ID NO: 111, conjugated to mouse CpG oligo 4523 (SEQ ID NO: 121)) was administered intraperitoneally 2 doses every 3 days at 1 mg/kg.

[3] = test system: B16-F10 melanoma cell line; assay: B16F10 mouse syngeneic tumor model, combination with anti-PD-L1; assay type: in vivo; details: 30 mg/kg i.p. in combination with anti-PD-L1 antibody 10 mg/kg, compared to either alone
Description: B16-F10 melanoma cell line (ATCC) was cultured in Complete Dulbecco's Modified Eagle's Medium (DMEM, 10% FBS, 1% Pen/Strep, 1% Glutamax, 1% Sodium Pyruvate) at 37° C. and 5% CO2. Cells were detached with Trypsin 0.25% (Gibco) and washed twice with DMEM (Gibco). Cells were resuspended at 6E6/mL in DMEM and kept on ice until use. 100 μL of suspended cells were subcutaneously implanted into the right flank of 6-week-old female C57BL/6 mice (Charles River). Tumor size was measured and recorded 2-3 times a week with calipers starting 7 days post-implantation until duration of the study, approximately 17 days later. Tumor volume was calculated using the following formula: (length×width×width)/2. Once tumors reached on average 55 mm^3, approximately 7 days post-implantation, mice were randomized by tumor size and treatments were initiated. The conjugates were administered intraperitoneally 2 doses every 3 days at 30 mg/kg. Anti-PD-L1 was administered intraperitoneally 2 doses every 3 days at 10 mg/kg. […] The anti-mSIRP-α antibody conjugate comprised murine reactive mT-CpG oligonucleotide (SEQ ID NO: 121) conjugated to an anti-SIRP-α antibody comprising a heavy chain comprising the sequence of SEQ ID NO:91 and a light chain comprising the sequence of SEQ ID NO:111. […]

[4] = test system: RENCA renal carcinoma cells; assay: RENCA mouse syngeneic tumor model refractory to PD-1; assay type: in vivo; details: 10 mg/kg i.p. three times, three days apart, single agent
Description: RENCA renal carcinoma cells line (ATCC) was cultured in Complete RPMI (RPMI, 10% FBS, 1× Pen/Strep, 1× Glutamax) at 37° C. and 5% CO2. Cells were detached with Trypsin 0.25% (Gibco) and washed twice with RPMI 1640 (Gibco). Cells were resuspended at 20E6/mL in RPMI 1640 and kept on ice until use. 100 μL of suspended cells were subcutaneously implanted into the right flank of 6-week-old female BALB/c mice (Charles River). Tumor size was measured and recorded twice a week with calipers starting 9 days post implantation until duration of the study, approximately 27 days later. Tumor volume was calculated using the following formula: (length×width×width)/2. Once tumors reached on average 56 mm^3, approximately 9 days post implantation, mice were randomized by tumor size and treatments were initiated. Anti-mSIRP-α conjugated to mT-CpG (heavy chain comprising the sequence of SEQ ID NO:91 and light chain comprising the sequence of SEQ ID NO:111, conjugated to mouse CpG oligo 4523 (SEQ ID NO:121)) was administered intraperitoneally 3 doses every 3 days at 10 mg/kg. In the anti-PD-1 RMP1-14 (BioXcell) treated cohort, dosing was initiated on day 10 post-tumor implantation once tumors reached on average 52 mm. A total of 3 doses 3 days apart at 10 mg/kg were administrated.

[5] = test system: CT26 mouse colon carcinoma cells; assay: CT26 mouse syngeneic tumor model, alone and in combination with anti-PD-1; assay type: in vivo
Description: CT26 mouse colon carcinoma cells (ATCC) were cultured in Complete RPMI (RPMI, 10% FBS, 1× Pen/Strep, 1× Glutamax) at 37° C. and 5% CO2. Once cells were 80% confluent, cells were detached with Trypsin 0.25% (Gibco) and washed twice with RPMI 1640 (Gibco). Cells were resuspended at 20E6/mL in RPMI 1640 and kept on ice until use. 100 μL of suspended cells were subcutaneously implanted into the right flank of 6 week old female BALB/c mice (Charles River). Tumor size was measured and recorded twice a week with calipers starting 7 days post implantation until duration of the study, approximately 27 days later. Tumor volume was estimated using the following formula: (length×width×width)/2. Once tumors reached 110 mm^3, approximately 9 days post implantation, mice were randomized by tumor size and treatments were initiated. Anti-mSIRP-α antibody-CpG oligonucleotide conjugate with a heavy chain comprising the sequence of SEQ ID NO:91 and a light chain comprising the sequence of SEQ ID NO: 111, conjugated to mouse CpG oligo 4523 (SEQ ID NO:121), […], 4 days apart, anti-PD-1 […] (BioXcell) at 10 mg/kg twice, 4 days apart as a single agent or in combination with anti-mSIRP-α antibody-CpG oligonucleotide conjugate for a total of two doses 4 days apart and anti-PD-1 twice, two days post anti-mSIRP-α antibody-CpG oligonucleotide conjugate.

| Molecule | anti-tumor inhibition [1] | anti-tumor activity [2] | anti-tumor response [3] | anti-tumor response [4] | tumor growth inhibition ([5]; 1 mg/kg i.p., single agent) | anti-tumor response ([5]; suboptimal dose 0.3 mg/kg in combination with anti-PD-1 antibody 10 mg/kg, compared to either alone) |
| --- | --- | --- | --- | --- | --- | --- |
| B1 | reduced anti-tumor inhibition |  |  |  |  |  |
| B2 |  | superior anti-tumor activity | enhanced anti-tumor response | potent, single-agent anti-tumor response | robust tumor growth inhibtion | enhanced anti-tumor response |
